Test results as given in the supplement of paper PMC10126150.
± gives the standard deviation of the averaged measurements.

System: ATP
Assay: switch fluorescence ratio, 500 uM ATP over buffer (Cy3 cluster intensity, sum of 5 cycles each) (fold (ratio)); higher = stronger signal-on switching upon ATP binding; sequences stand for … in TCGTCGGCAGCGTCAGATGTGTATAAGAGACAGTTTTTTTTTTTTTTTTTTTTTTTTT…TC
Conditions: aptamer strand: ATP DNA aptamer (quencher-CACCTGGGGGAGTATTGCGGAGGAAGG + anchor), 100 nM annealed; ATP concentration: 500 uM
Method in brief: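 After annealing to 100 nM quencher-labelled ATP aptamer, Cy3-labelled switching-strand clusters on a modified Illumina MiSeq flow-cell were imaged in selection buffer. A second image followed after 15 min with 500 uM ATP at 22 °C, and five such buffer/ATP cycles were done, each separated by NaOH stripping and re-annealing. The fluorescence ratio, averaged per switch-domain sequence, is summed target-cycle over summed buffer-cycle Cy3 intensity per cluster, with clusters outside 100-1000 RFU excluded.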
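Further: ATP exposure 15 min at 22 °C before imaging.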

Sequence | switch fluorescence ratio
AATCGAGTGG | 0.969 ± 0.06
AATCGGAGCA | 1.349 ± 0.0071
AATCGGCCGG | 1.01 ± 0.053
AATCGGCTGG | 1.01 ± 0.011
AATCGGGACC | 0.9905 ± 0.002
AATCGGGCAA | 1.34 ± 0.03
AATCGGGGCG | 0.905 ± 0.016
AATCGTTAAA | 0.9812 ± 0.0069
AATCTACGCA | 1.44 ± 0.32
AATCTACTGA | 1.013 ± 0.01
AATCTATAAT | 1.007 ± 0.0018
AATCTTCATG | 0.997 ± 0.044
AATCTTCTGG | 0.98 ± 0.025
AATCTTGGGA | 0.977 ± 0.028
AATCTTGGGC | 0.9771 ± 0.0096
AATCTTGTTG | 0.998 ± 0.021
AATCTTTGCT | 1.011 ± 0.0063
AATCTTTGTG | 0.976 ± 0.033
AATGAAAGGT | 1.01 ± 0.022
AATGAACATG | 0.978 ± 0.037
AATGAAGGTC | 0.965 ± 0.079
AATGAAGTGT | 0.996 ± 0.012

Sequence | switch fluorescence ratio
AATGAATCGT | 1 ± 0.015
AATGAATTGG | 0.9691 ± 0.005
AATGACTCAT | 0.9808 ± 0.0049
AATGAGAGTT | 0.9909 ± 0.0011
AATGAGGGGG | 0.978 ± 0.05
AATGAGTCAA | 1 ± 0.021
AATGAGTGTG | 0.9805 ± 0.0029
AATGATAGTA | 1.006 ± 0.0034
AATGATATCA | 1.01 ± 0.025
AATGATCGAC | 0.975 ± 0.012
AATGATGCCT | 0.995 ± 0.036
AATGATGTAC | 1.05 ± 0.01
AATGCACTCG | 1.04 ± 0.05
AATGCAGATT | 1.031 ± 0.008
AATGCCAAGG | 1 ± 0.03
AATGCGCCAG | 1.03 ± 0.025
AATGCTGACA | 1 ± 0.016
AATGCTGGTG | 1.075 ± 0.01
AATGCTGGTT | 1.01 ± 0.015
AATGGACGTG | 1 ± 0.028
AATGGAGATG | 1 ± 0.041
AATGGAGTGG | 0.997 ± 0.028

Sequence | switch fluorescence ratio
AATGGCAATG | 1.05 ± 0.026
AATGGCAATT | 0.995 ± 0.033
AATGGCAGGG | 0.988 ± 0.039
AATGGCATTA | 0.984 ± 0.03
AATGGCATTC | 1.03 ± 0.038
AATGGGAATG | 1.013 ± 0.0052
AATGGGCCGG | 1.013 ± 0.0076
AATGGGCGAG | 1.08 ± 0.18
AATGGGCTGA | 0.971 ± 0.015
AATGGGGCAA | 1.058 ± 0.0077
AATGGGGGAA | 0.9881 ± 0.0087
AATGGGGGGT | 1.02 ± 0.053
AATGGGGGTG | 1.02 ± 0.032
AATGGGTAGT | 0.991 ± 0.042
AATGGGTCAT | 1.004 ± 0.0013
AATGGTATGT | 1.032 ± 0.0088
AATGGTTGGG | 0.9989 ± 0.0078
AATGTAAATA | 1.01 ± 0.018
AATGTACCCA | 1.09 ± 0.017
AATGTAGACG | 0.997 ± 0.13
AATGTATCGT | 0.978 ± 0.021
AATGTATGTT | 1.032 ± 0.0074

Sequence | switch fluorescence ratio
AATGTCGAAA | 0.998 ± 0.018
AATGTCGACC | 1.026 ± 0.0022
AATGTGCCTT | 1.056 ± 0.0057
AATGTGGATA | 0.984 ± 0.028
AATGTTAAAT | 0.979 ± 0.02
AATGTTCAAA | 0.995 ± 0.023
AATGTTTTGA | 0.995 ± 0.016
AATGTTTTGG | 0.9952 ± 0.0081
AATTAAAAAG | 0.975 ± 0.023
AATTAAACGA | 1.036 ± 0.0068
AATTAAGGAT | 0.975 ± 0.032
AATTAAGGTT | 1.04 ± 0.03
AATTACGATT | 1.04 ± 0.034
AATTAGATTC | 0.994 ± 0.055
AATTAGGGTA | 1.03 ± 0.012
AATTAGGTTG | 0.967 ± 0.025
AATTATACCC | 1.03 ± 0.029
AATTATTTT | 0.993 ± 0.02
AATTCAAAAA | 1.02 ± 0.021
